Measurements from the nanobody polyreactivity screen of Harvey et al. (2022).

experiment: yeast display, Sf9 membrane polyspecificity reagent, FACS + sequencing; frameworks hold sequencing errors
Outline: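 A synthetic nanobody library was expressed on Saccharomyces cerevisiae BJ5465 by galactose induction for 36–48 hours. The library was stained for 1 hour at 4 °C with 10% biotinylated, detergent-solubilized Sf9 membrane reagent and enriched with streptavidin microbeads before FACS. Low and high (top ~1%) gates were set on anti-HA fluorescence for expression and streptavidin fluorescence for reagent binding, and each polyreactivity label reflects the gate of origin.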

Sequence | polyreactivity (PSR sort gate)
QVQLVESGGGLVQAGGSLRLSFASSGRIFIAYAMGWYRQAPGIERELVAAITSGGGTYYADSVKGRFTISRDNAKNTVYLQMNSLKPVDTAVYYCAAACGRRYPDKFVAITPTYDFWGQGTQVTVSS | low polyreactivity
QVQLVESGGGLVQAGGSLRLSFPASGSTYFTYAMGWYRQAPGKERELVAAISWSGGTTYYADSVKGRFTISRDNAKNTVYLQMNSLKPEDTAVYYCASDRAGILKANDYWGKGTQVTVSS | low polyreactivity
QVQLVESGGGLVQAGGSLRLSGAASGFIFGYYAMGWYRQAPGKERELVAAITSRGGSTYYADSVKGRFTISRDNAKNTVYLQMNSLKPEDTAVYYCAAGYNGYGLQYYYWGQGTQVTVSS | high polyreactivity
QVQLVESGGGLVQAGGSLRLSGAASGRIFYYNTMGWYRQAPGKEWEVVAAISSTAYTTYADSVKGRFTISRDNAKNTVYLQMYSLKPEDTAVYYCAAYRYSRYRQRYNYWGQGTQVTVSS | high polyreactivity
QVQLVESGGGLVQAGGSLRLSGAASGRTCGTNAMGWSRQAHGKERELVAAISSSGGSTYYADSVKGRFTISRDNAKNTVYLQMISQKPEDTAVYYCAQGWHRGVGFGYWGQGTQVTVSS | high polyreactivity
QVQLVESGGGLVQAGGSLRLSGAASGSTFGWYVMGWYRQAPGKERELVASITGSGGSTYYADSVKGRFTISRDHAKNTVYLQMNSLNPEDTAVYYCAAHTGWYDDWTHDSWGQGTQVTVSS | low polyreactivity
QVQLVESGGGLVQAGGSLRLSGAASGSTFTEYAMGWYRQAPGKEREFVAAITESGASTYYADSVKGRFTISRDNAKNTVYLQRNSLKPEDTAVYYCNAGYWRFIDSYDYWGQGTQVTVSS | high polyreactivity
QVQLVESGGGLVQAGGSLRLSGAAWSIFYLNAMGWYRKAPGKERELVAAISSAGSTYYADSVKGRFTISRDNAKNTVYLQMNSLKPEDTAVYYCAAYWYDSPGVTEIWYDYWGQGTQVTVSS | low polyreactivity
QVQLVESGGGLVQAGGSLRLSGDASGRIFRLYAMGWYRQAPGKEREFVAAISRSGGRTYYADSVKGRFTISRDNAKNTVYLQMNSLKPEDTAVYYCAAVYRQCGDYYSRDYYWGQGTQVTVSS | high polyreactivity
QVQLVESGGGLVQAGGSLRLSLAASGSIFRAYVMGWYRPAPGKERELVAAITRSGARTYYADSLKGRFTLSRDNAKNTVYLQMNSLKPEDTAVYYCAAETSGSQSKLYYYWGQGTQVTVSS | high polyreactivity
QVQLVESGGGLVQAGGSLRLSRAASGSTLSLYAMGWYRQAPGKERELVAAITSSGGTYYADSVKGRFTISRDNAKNTVYLQMNSLKPEDTAVYYCAADPRSYFTSEYWGQGTQVTVSS | high polyreactivity
QVQLVESGGGLVQAGGSLRLSSAASGFIFDYSAMGWYRQAPGKERELVAAITRDGGGTYYADSVKGRFTISRDNANNTVYLQMNRLKPEDTAVYYCAARRAVRLYYWGQGTQVTVSA | high polyreactivity
QVQLVESGGGLVQAGGSLRLSSAASGFNSSRNAMGWYRQAPGKERELVATISSGGDTYYADSVKGRFTISRDNAKNTVYLQMNSLKPEDTAVYYCATDRAERTGYTRYVKTYNYWGQGTQVTVSS | low polyreactivity
QVQLVESGGGLVQAGGSLRLSSAASGFTFDCNTMGWYRQAPGKERELVALISSTGGRTYYADSVQGRFSISRDNAKNTVYLQMNSLKPEDTAGSYCNKRRRNPVGYDYWGLGTQVTVSS | high polyreactivity
QVQLVESGGGLVQAGGSLRLSSAASGFTFQGYVMGWYRQAPGKERELVAAISWSGGSTYYADSVKGRFTISRDTAKNTVYLQMNSLKPEDTAVYYCAAVTRFYTKYYWGQGTQVTVSS | high polyreactivity
QVQLVESGGGLVQAGGSLRLSSAASGFTFRAYAMGWYRQAPGKERELVAGISTRGGRTYYADSVKGRFTISRDNAKNTVYLQMNSLKPEDTAVYYCNAVDKTGKYDYWGQGPQVTVSS | high polyreactivity
QVQLVESGGGLVQAGGSLRLSSAASGFTFRYYAMGWYRQAPGKERELVAAISWSGGRTYYADSVKGRFTISRDNAKYTVYLQMNILKPEDTAVYYCAADGYPYFYGDFDYSGQGTQVTVSS | high polyreactivity
QVQLVESGGGLVQAGGSLRLSSAASGFTFSAYAMGWYRQAPGKEREMVATITSGGSTNYADSVKGRFTISRDNAKNTVYLQMNSLIPEDTAVYYCAADVGWLYYYPKYYYWGQGTQVTVSW | low polyreactivity
QVQLVESGGGLVQAGGSLRLSSAASGFTLGYNAMGWYRQAPGKERELVAGITWSGGSTSYADSVKGRFTISRDNAKNTVYLQMNSLKPEDTAVYYCAKLRRYSGWLPWPYAYDYWGQGTQVTVSS | high polyreactivity
QVQLVESGGGLVQAGGSLRLSSAASGGIFFIYVMGWYRQAPGKERELVAAISWSGGDTYYADSVQGRFTISRDNAKNTVYVQMNSLKPEDTAVYYCAARYYYLGTRYGYWGQGTQVTVSS | low polyreactivity
QVQLVESGGGLVQAGGSLRLSSAASGGIFRYYAMGLYRQAPGKERELVAAITSSGTSTYYADSVKGRFTISRDYAKNTVYLQMNSLKPEDTAVYYCARVVRPTDGDYWGLGTQVTVSS | high polyreactivity
QVQLVESGGGLVQAGGSLRLSSAASGGILPIYAMGWYRQAPGKERELVATITGSGGGTYADSVKGRFTISRDNAKNTVYLQMNSLKPEDTAVYYCNADLGPVGHIDGYSYYDYDYWGQGTQVTVSS | low polyreactivity

Sequence | polyreactivity (PSR sort gate)
QVQLVESGGGLVQAGGSLRLSSAASGIIFDYNAMGWYRQAPGKERELVAAISYSGDSTYYADSVKGRFTISRDNAKNTVYLQMNSLKPEDTAVYYCAAVIYFGWWYVYTEDDYWGQGTQVTVSS | high polyreactivity
QVQLVESGGGLVQAGGSLRLSSAASGIIFFFYAMGWYRQAPGKERELVAVITGSGDSTFYADSVKGRFTISRDNAKNTVYLQMNSLKPEDTAVYYCNARQVSGGYYYWGQGTQVTVSS | low polyreactivity
QVQLVESGGGLVQAGGSLRLSSAASGIIFTYYAMGWYRQAPGKERELVAAISSGGGSTYYADSVKGRFTISRDNAKNTVYLQMNSLKPEDTAVYYCNADYYFVYTYLHDYWGQGTQVTVSS | low polyreactivity
QVQLVESGGGLVQAGGSLRLSSAASGITFIRYAMGWYSQAPGKERELVAAISSGGSTNYADSVKGRFTISRDNAKNTVYLQMNSLKPEDTAVYYCAARYYWSFAYDYWGQGTQVTVSS | low polyreactivity
QVQLVESGGGLVQAGGSLRLSSAASGITLTANAMGCYRQAPGKERELVAAISRGGSTYYADSVKGRFTISRDNAKNTVYLQMNSLKPEDTAVYYCNKAGGYWYAKRDYDYWGQCTQVTVSS | high polyreactivity
QVQLVESGGGLVQAGGSLRLSSAASGLIFWFYAMGWYRQAPGKERELVAAIDTDGGSTYYADSVKGRFTISRDNAKNTVYLQMNSLKPEDTAVYYCAATFAAYTQQTFYYWGQGTQVTVSS | low polyreactivity
QVQLVESGGGLVQAGGSLRLSSAASGLNFQRNTMGWSRQAPVKERELVAAISRSGGSTYYADSVKGRFTISRDNAKNTVYLQMNSLKPEDTAVYYCAALIFRHRGKDDDYWGQGTQVTVSS | high polyreactivity
QVQLVESGGGLVQAGGSLRLSSAASGLTFLGYTMGWYRQAPGKARELVAAINYSGGSTYYADSVKGSFTISRDNAKNTVYLQMNSLKPEDPAVYYCAARRAVSGGVRMYYWGQGTQVTVSS | high polyreactivity
QVQLVESGGGLVQAGGSLRLSSAASGLTFQEYAMGWYRQAPGKERELVAAISWSGGSTYYADSVKGRFTISRDNAKNTVYLQMNSLKPEDTAVYYCAAEAYEEYITGWYAYDYWGQGTQVTVSS | high polyreactivity
QVQLVESGGGLVQAGGSLRLSSAASGLTFRYYALGWYRQAPGKERELVAAITRRGSTYYADSVKGRFTISRDNAKNTVYLQMNSLKPEDTAVYYCATVTGFHSSPLRDLDYWGQGTQVTVSS | high polyreactivity
QVQLVESGGGLVQAGGSLRLSSAASGNIFYGYAIGWYRQAPGKERELVARINWSGTRTYYADSVKGRFTISRDNAKNTVYLQMNSLKPEDTAVYYCAADRYRKYYRRYYYWGQGTQVTVSS | high polyreactivity
QVQLVESGGGLVQAGGSLRLSSAASGNIIKYYAMGCYRQEPGKERELVAAINWSGGSTYYADSVKGRFTISRDNAKNTVYLQMNSLKPEDTAVYYCNVFSSGYYLFDYWGQGTQVTVSS | high polyreactivity
QVQLVESGGGLVQAGGSLRLSSAASGNTFDSKAMGWYRQAPGKERELVAGISQGDGSTYADSVKGRFTISRDNAKNTVYFQMNSLKPEDTAVYYCAADRDYIMDYWGQGTQVTVSS | high polyreactivity
QVQLVESGGGLVQAGGSLRLSSAASGRIFAKYAMGWYRQAPGKERELVAAISWGGGSTYYADSVKGRFTISRDNAKNTVYLQMNSLKPEDTAVYYCAARIPKQRDVRGSGMNYWGQGTQVTVSS | high polyreactivity
QVQLVESGGGLVQAGGSLRLSSAASGRIFAVNAMGRYRQAPGKERELVASIRWSGGSTNYADSVKGRFTISRDNAKNTVYLQMNSLKPEDTAVYFCAAVIYLWGQGTQVTVSS | high polyreactivity
QVQLVESGGGLVQAGGSLRLSSAASGRIFGTYAMGWYRQAPGKERELVAAITSGGRTYYADSVKGRFTISRDNAKNTVYLQMNSLKPEDNAVYYCARPSGYRKYYYWGQGTQVTVSS | high polyreactivity
QVQLVESGGGLVQAGGSLRLSSAASGRIFIGNAMGWYRQAPGKERELVAAISKGGGSTYYADSVKGRFTISRDNAKNTVYLQMNSLKPEDTAVYYCNKLRYPLLPPKYYYWGQGTQVTVSS | high polyreactivity
QVQLVESGGGLVQAGGSLRLSSAASGRIFLLNAMGWYRQAPGKERELVADISFNGGSTYYADSVKGRFTISRDNAKNSVYLQMNSLKPEDTAVYYCAVGSFGVSAYSYYYWGQGTQVTVSS | low polyreactivity
QVQLVESGGGLVQAGGSLRLSSAASGRIFNGNAMGWSRQSPGKERELVAAISSGGRTYYADSVKGRFTISRDNAKNTVYLQMNSLKPEDTEVYYCAARVILTTYSRNYYYWGQGTQVTVSS | high polyreactivity
QVQLVESGGGLVQAGGSLRLSSAASGRIFPGYAMGWYRQAPGKEREFVAAITRSGGRTYYADSVKGRFTISRDNAKNTVYVQMNSLKPEDTAVYYCNRVYEYWSEYDYWGQGTQVTVSS | high polyreactivity
QVQLVESGGGLVQAGGSLRLSSAASGRIFPRYGMGWYRQAPGKERELVAAISIGGSTHYADSVKGRFTISRDNAKNTVYLQMNSLKPEDTAVYYCNKDIYVYWLFRLGMGYWGQGTQVTVSS | low polyreactivity
